Assay results published in patent publication US20250313625A1 (ELPISCIENCE SUZHOU BIOPHARMA, published 2025).

Tests used:
[1] = target: T1, human LAG3, full length, stably expressed on cells (human, UniProt P18627 23-525); assay: FACS on CHOK1 cells stably expressing human LAG3
T1 construct: whole, on cells; also called CHOK1-human LAG3
T1 sequence (looked up): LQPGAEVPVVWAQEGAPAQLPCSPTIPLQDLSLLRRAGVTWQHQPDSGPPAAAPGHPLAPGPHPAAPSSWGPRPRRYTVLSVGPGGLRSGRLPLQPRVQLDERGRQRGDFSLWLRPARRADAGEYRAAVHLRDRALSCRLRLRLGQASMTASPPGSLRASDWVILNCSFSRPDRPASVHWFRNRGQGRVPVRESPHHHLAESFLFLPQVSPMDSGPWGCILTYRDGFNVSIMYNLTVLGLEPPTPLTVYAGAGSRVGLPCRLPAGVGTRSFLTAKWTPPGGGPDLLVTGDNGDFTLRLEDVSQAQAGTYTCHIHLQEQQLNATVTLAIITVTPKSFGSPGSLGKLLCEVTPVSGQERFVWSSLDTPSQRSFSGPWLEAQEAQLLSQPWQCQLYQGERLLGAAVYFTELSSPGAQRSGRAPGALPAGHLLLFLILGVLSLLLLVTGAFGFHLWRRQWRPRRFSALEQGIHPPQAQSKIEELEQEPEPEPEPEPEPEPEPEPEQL
Protocol: MFI was detected and EC₅₀ was calculated using GraphPad Prism9.0.

[2] = target: T2, mFc tagged human LAG3 ECD recombinant protein (human, UniProt P18627 23-450); assay: competitive FACS: mFc tagged human LAG3 ECD binding to MHC II on Raji cells
T2 construct: extracellular domain; purchased from Biointron; not shown: mouse IgG Fc (mFc) tag
T2 sequence (looked up): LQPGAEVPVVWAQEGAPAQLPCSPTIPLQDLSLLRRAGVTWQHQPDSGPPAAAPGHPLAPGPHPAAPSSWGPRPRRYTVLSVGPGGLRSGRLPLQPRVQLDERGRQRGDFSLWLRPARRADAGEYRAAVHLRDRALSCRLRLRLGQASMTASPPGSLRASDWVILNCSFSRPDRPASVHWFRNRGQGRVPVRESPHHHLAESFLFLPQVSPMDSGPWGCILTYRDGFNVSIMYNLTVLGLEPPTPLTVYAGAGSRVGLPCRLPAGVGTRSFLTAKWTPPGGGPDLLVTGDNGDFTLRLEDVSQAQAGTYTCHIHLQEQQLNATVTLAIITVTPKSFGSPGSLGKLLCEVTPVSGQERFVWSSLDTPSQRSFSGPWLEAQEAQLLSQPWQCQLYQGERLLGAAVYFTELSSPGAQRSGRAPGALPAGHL
Protocol: Activity of the purified chimeric antibodies to block LAG3 and MHC II interaction was determined by competitive FACS assay. […] After washing, dye labeled anti-mouse Fc 2nd antibody (Sigma) was added and incubated at 37° C. for 1 hour. Fluorescence intensity was detected.

[3] = target: T3, human LAG3 (form used in Octet, Biacore and HDX-MS not given) (human, UniProt P18627 23-450, limits assumed); assay: BLI (Octet), 1:1 fit
T3 sequence (looked up): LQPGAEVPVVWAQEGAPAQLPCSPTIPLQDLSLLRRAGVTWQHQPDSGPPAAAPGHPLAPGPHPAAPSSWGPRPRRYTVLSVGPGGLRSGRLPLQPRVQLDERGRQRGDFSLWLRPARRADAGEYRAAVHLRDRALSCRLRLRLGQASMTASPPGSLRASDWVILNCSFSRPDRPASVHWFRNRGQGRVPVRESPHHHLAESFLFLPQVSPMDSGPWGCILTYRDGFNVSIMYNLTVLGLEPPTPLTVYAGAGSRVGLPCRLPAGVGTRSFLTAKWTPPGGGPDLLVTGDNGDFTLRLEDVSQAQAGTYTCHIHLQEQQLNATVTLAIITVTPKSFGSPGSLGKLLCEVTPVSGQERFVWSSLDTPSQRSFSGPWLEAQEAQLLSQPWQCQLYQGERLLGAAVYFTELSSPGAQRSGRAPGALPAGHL
Protocol: (§1) The association and dissociation curves were fit with 1:1 binding model, and the Ka/Kd/KD values for each antibody were calculated.
as §1

| Binder | EC50 [1] [nM] | TOP MFI [1] | %Blocking at 2 nM [2] [%] | %Blocking at 4 nM [2] [%] | %Blocking at 8 nM [2] [%] | Kd [3] [nM] | koff [3] [s⁻¹] | kon [3] [M⁻¹ s⁻¹] |
| --- | --- | --- | --- | --- | --- | --- | --- | --- |
| hu021.269 (antibody, V domains shown, humanized from 021c) VH: QVQLQESGPGLVKPSQTLSLTCTVSGYSITSGYYWNWIRQHPGNKLEWIGDISYDGGNNYNPSLKNRVTISRDTSKNQFSLKLSSVTAADTAVYYCARDITLTGAMDYWGQGTTVTVSS VL: EIVLTQSPATLSLSPGERATLSCRASESVDNYGISFMHWYQQKPGQAPRLLIYRASNRESGIPARFSGSGSRTDFTLTISSLEPEDFAVYYCQQSNKDPYTFGQGTKLEIK | 2.3 | 598 | 9.9 | 30.4 | 70.2 | 6.95 | 0.00314 | 451000 |
| hu021.212 (antibody, V domains shown, humanized from 021c) VH: QVQLQESGPGLVKPSQTLSLTCTVSGYSISSGYYWNWIRQHPGNKLEWIGDISYEGGNNYNPSLKNRVTISRDTSKNQFSLKLSSVTAADTAVYYCARDITLTGAMDYWGQGTTVTVSS VL: EIVLTQSPATLSLSPGERATLSCRASESVDNYGISFMHWYQQKPGQAPRLLIYRASNLETGIPARFSGSGSRTDFTLTISSLEPEDFAVYYCQQSNKDPYTFGQGTKLEIK | 1.8 | 586 | 4.6 | 23.9 | 71.5 |  |  |  |
| hu021.279 (antibody, V domains shown, humanized from 021c; also called hu21.279) VH: QIQLQESGPGLVKPGQTLSLTCTVSGYSITSGYYWTWIRQHPGNKLEWIGDISYDAGNNYNPSLKNRITISRDTSKNQFSLKLSSVTAEDTATYYCARDITLTGAMDYWGQGTTVTVSS VL: EIVLTQSPATLSLSPGERATLSCRASESVDNYGISFMHWYQQKPGQAPRLLIYRASNLESGIPARFSGSGSGTDFTLTISSLEPEDFAVYYCQQSNKDPYTFGQGTKLEIK | 0.4 | 669 | 20 | 40.3 | 98.5 | 3.57 | 0.00313 | 877000 |
